Values of other authors in publication PMC4657025.
Where two headings read alike, the source gives them in different places.

Key:
[1] = biological target: Asp85 (UniProt position 98, …)
[2] = biological target: Asp96 (UniProt position 109, …); test: not stated in the text (title of ref 19 indicates FTIR spectroscopy); conditions: dark state (unphotolysed BR)
[3] = biological target: Asp85 (UniProt position 98, …); conditions: 150 mM NaCl

Protein	pKa [1]	pKa ([1]; 150 mM NaCl)	pKa [2]	pKa [3]
Bacteriorhodopsin (BR) (Halobacterium salinarum) (protein) QAQITGRPEWIWLALGTALMGLGTLYFLVKGMGVSDPDAKKFYAITTLVPAIAFTMYLSMLLGYGLTMVPFGGEQNPIYWARYADWLFTTPLLLLDLALLVDADQGTILALVGADGIMIGTGLVGALTKVYSYRFVWWAISTAAMLYILYVLFFGFTSKAESMRPEVASTFKVLRNVTVVLWSAYPVVWLIGSEGAGIVPLNIETLLFMVLDVSAKVGFGLILLRSRAIFGEAEAPEPSAGDGAAATSD	2.7	2.5	>11	
Bacteriorhodopsin R82Q mutant (Halobacterium salinarum; R82Q) (protein) QAQITGRPEWIWLALGTALMGLGTLYFLVKGMGVSDPDAKKFYAITTLVPAIAFTMYLSMLLGYGLTMVPFGGEQNPIYWAQYADWLFTTPLLLLDLALLVDADQGTILALVGADGIMIGTGLVGALTKVYSYRFVWWAISTAAMLYILYVLFFGFTSKAESMRPEVASTFKVLRNVTVVLWSAYPVVWLIGSEGAGIVPLNIETLLFMVLDVSAKVGFGLILLRSRAIFGEAEAPEPSAGDGAAATSD				7.2
